Assay results as given in patent US20220372154A1 (APEXIGEN, published 2022).

T1: human TNFR2-His tagged protein (soluble) (human, UniProt P20333 23-257)
T1 construct: also called hTNFR2 (soluble); soluble TNFR2-His; not shown: His tag
T1 sequence (looked up): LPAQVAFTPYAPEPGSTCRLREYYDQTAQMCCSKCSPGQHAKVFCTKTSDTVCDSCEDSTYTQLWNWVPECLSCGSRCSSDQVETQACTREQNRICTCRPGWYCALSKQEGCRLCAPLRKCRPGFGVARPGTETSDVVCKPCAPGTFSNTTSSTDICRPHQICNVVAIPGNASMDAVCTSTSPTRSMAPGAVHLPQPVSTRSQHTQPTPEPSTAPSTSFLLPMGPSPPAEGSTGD

T2: cynomolgus TNFR2-His tagged protein (cynomolgus, UniProt A0A2K5VET2 132-366)
T2 construct: also called Cyno TNFR2; cynomolgus TNFR2 protein; not shown: His tag
T2 sequence: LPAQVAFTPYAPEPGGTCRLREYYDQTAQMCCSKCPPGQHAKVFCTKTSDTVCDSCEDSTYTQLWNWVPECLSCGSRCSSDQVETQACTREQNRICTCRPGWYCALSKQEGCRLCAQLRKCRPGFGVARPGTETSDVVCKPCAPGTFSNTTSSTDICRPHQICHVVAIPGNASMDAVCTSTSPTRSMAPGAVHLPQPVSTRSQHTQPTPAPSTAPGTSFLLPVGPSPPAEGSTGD

T3: TNFR2 CRD4 peptide (peptide 5; aa 146-174 of mature TNFR2) (human)
T3 construct: Range counted on mature TNFR2; also called peptide five; bin 5
T3 peptide: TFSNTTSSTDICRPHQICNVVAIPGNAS

T4: soluble mouse TNFR2 (mouse, UniProt P25119 23-258, limits assumed)
T4 sequence (looked up): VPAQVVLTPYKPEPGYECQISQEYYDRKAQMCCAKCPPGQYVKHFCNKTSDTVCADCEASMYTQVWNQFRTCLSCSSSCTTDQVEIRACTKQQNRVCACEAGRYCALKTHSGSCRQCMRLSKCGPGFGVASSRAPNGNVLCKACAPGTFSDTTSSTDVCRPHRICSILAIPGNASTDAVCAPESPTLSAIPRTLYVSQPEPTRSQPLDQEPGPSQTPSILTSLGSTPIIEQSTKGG

T5: TNFR-Fc (UniProt P20333 23-257, limits assumed)
T5 construct: Printed only as TNFR-Fc; not shown: Fc part
T5 sequence (looked up): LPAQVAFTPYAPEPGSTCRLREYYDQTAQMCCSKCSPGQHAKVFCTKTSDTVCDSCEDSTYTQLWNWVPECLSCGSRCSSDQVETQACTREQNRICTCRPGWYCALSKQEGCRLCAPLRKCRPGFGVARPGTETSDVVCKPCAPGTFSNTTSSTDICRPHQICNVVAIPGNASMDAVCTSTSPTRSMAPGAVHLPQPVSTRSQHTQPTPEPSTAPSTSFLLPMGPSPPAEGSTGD

T6: human TNFR2 expressed on cells (human, UniProt P20333 23-461)
T6 construct: whole, on cells; also called hTNFR2 (cell); CHO-TNFR2
T6 sequence (looked up): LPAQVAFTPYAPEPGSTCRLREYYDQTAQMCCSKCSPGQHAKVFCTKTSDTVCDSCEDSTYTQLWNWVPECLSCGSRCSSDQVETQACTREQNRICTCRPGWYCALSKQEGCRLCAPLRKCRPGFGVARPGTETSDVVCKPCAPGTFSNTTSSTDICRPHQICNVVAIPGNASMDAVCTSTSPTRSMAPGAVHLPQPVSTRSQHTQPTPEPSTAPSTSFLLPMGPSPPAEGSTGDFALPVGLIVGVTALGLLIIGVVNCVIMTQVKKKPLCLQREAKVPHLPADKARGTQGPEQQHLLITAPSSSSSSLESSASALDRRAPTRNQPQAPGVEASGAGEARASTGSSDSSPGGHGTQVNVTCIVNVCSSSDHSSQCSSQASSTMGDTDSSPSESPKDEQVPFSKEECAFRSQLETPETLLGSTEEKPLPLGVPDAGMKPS


Tests used:
[1] = biological target: T1, human TNFR2-His tagged protein (soluble); experiment: ELISA on coated human TNFR2-His
Description: (§1) In FIGS. 3A-3B, human (3A) or cynomolgus (3B) TNFR2-His tagged protein was coated on 96-well ELISA plates at 1 μg/mL and incubated overnight at 4° C. Plates were washed and blocked using 1% BSA. Antibodies were added for 1 hour at room temperature (RT), washed, and detected using anti-Human HRP. Assay was developed using TMB substrate for 3-5 minutes. In FIG. 3C, FACS binding was performed on CHO cells that were engineered to express human TNFR2. Briefly, antibodies were incubated with 200,000 cells in MACS buffer for 1 hour followed by wash and detection using anti-human IgG BV421 for 20 minutes. Samples were analyzed using Cytoflex or MACSQuant flow cytometers. In FIG. 3D, ligand blocking ELISA was performed by coating plates with 1 ug/mL TNFR-Fc overnight at 4° C. Plates were washed, blocked and antibodies were incubated for 1 hr at RT. […] Assay was developed using TMB substrate for 5-7 minutes.

[2] = biological target: T2, cynomolgus TNFR2-His tagged protein; experiment: ELISA on coated cynomolgus TNFR2-His
Description: as §1

[3] = biological target: T3, TNFR2 CRD4 peptide (peptide 5; aa …); experiment: peptide-binding ELISA (potential peptide bin)
soluble mouse TNFR2 = biological target: T4, soluble mouse TNFR2; experiment: binding screen on soluble mouse TNFR2 (mouse cross-reactivity)
TNFR-Fc [4] = biological target: T5, TNFR-Fc; experiment: TNF-α blocking ELISA on coated TNFR-Fc
Description: as §1

[5] = biological target: T6, human TNFR2 expressed on cells; experiment: flow cytometry on CHO cells expressing human TNFR2
Description: as §1

[6] = biological target: T2, cynomolgus TNFR2-His tagged protein; experiment: ELISA, cynomolgus TNFR2
[7] = biological target: T1, human TNFR2-His tagged protein (soluble); experiment: ELISA, soluble human TNFR2
[8] = biological target: T6, human TNFR2 expressed on cells; experiment: flow cytometry, cell-expressed human TNFR2
[9] = biological target: T6, human TNFR2 expressed on cells; experiment: cell binding on TNFR2-overexpressing (OE) cells
TNFR-Fc [10] = biological target: T5, TNFR-Fc; experiment: TNF-α blocking ELISA (soluble)

Row | Binder | EC50 [1] [nM] | EC50 [2] [nM] | binding result [3] | binding result (soluble mouse TNFR2) | IC50 (TNFR-Fc [4]) [nM] | EC50 [5] [nM] | EC50 [6] [nM] | EC50 [7] [nM] | EC50 [8] [nM] | Kd [9] [nM] | IC50 (TNFR-Fc [10]) [nM]
1 | chimeric antibody clone 24-2 (rab600_24_2) (antibody, V domains shown) VH: QEQLEESGGGLVQPEGSLALTCKASGFSFSVSYWICWVRQAPGKGLEWIACTDGGDGSSYYASWVNGRFTISKISSTTVTLQMTSLTAADTAIYFCARDRSDVFNLWGPGTLVTVSS VL: DIVMTQTPASVEAAVGGTVTIKCQAGQSIDSNLAWYQQKPGQPPKLLIYRASTLASGVPSRFKGSGSGTEFALTISDLECADAATYFCQSFYVTISAMVDYPFGGGTEVVVK | 0.0981 | 0.0742 | binds | no binding | – | – | – | – | – | – | –
2 | chimeric antibody clone 24-124 (rab600_24_124) (antibody, V domains shown) VH: QEQLVESGGGLVTLGGSLKLSCKASGIDFSSYGISWVRQAPGKGLEWIAYIYPDYGSTDYATWVNGRFTISLDNAQNTVFLQMTSLTAADTATYFCASGYASSSGYYDPKYFGLWGPGTLVTVSS VL: IKMTQTPASVSAAVGGTVTINCRASEDIESYLAWYQQKPGQPPKLLIYDASDLASGVPSRVKGSGSGTEFTLTISGVRCDDAATYYCQHGFYTSRSDSVFGGGTEVVVK | 0.137 | 0.0882 | binds | no binding | 2.54 | 0.179 | – | – | – | – | –
3 | chimeric antibody clone 24-97 (rab600_24_97) (antibody, V domains shown) VH: QSLEESGGDLVKPGASLTLTCKASGFSFSSGHDMCWVRQAPGKGLEWIACIYPDYDITDYASWVNGRFTISLDNAQNTVFLQMTSLTAADTATYFCARSGYGGFRYGFNLWGPGTLVTVSS VL: DIVMTQTPASVEVAVGGTVTIKCQASEDIENYLAWYQQKPGQPPKLLIYDASDLTSGVPSRFKGSGSGTQFTLTISDLECADAATYYCQSVYYTSSDNYNNAFGGGTEVVVK | 0.0632 | 0.086 | binds | binds | – | – | – | – | – | – | –
4 | chimeric antibody clone 25-10 (rab600_25_10) (antibody, V domains shown) VH: QSVEESGGRLVAPGTPLTLTCTVSGIDLSRYAMAWVRQAPGKGLEYIGYIDTGDSTYYATWAKGRFTISRTSTTVHLKIASPTTEDTATYFCTNVGVRMYLWGPGTLVTVSS VL: DVVMTQTPASVEAAVGGTVTIKCQASQSISSYLSWYQQKPGQPPKLLIYRASTLESGVPSRFKGSGSGTEFTLTISDLECADAATYYCQCGYYGGSYIGAFGGGTEVVVK | 0.0862 | 0.0235 | binds | binds | – | 0.513 | – | – | – | – | –
5 | chimeric antibody clone 25-103 (rab600_25_103) (antibody, V domains shown) VH: QEQLKESGGGLVTPGTPLTLTCTVSGIDLSSYAMGWVRQAPGKGLEYIGFIDTGGSTYYANWAKGRFTISRTSTTVDLKIASPTTEDAATYFCANVGARMYLWGPGTLVTVSS VL: DVVMTQTPASVEAAVGGTVTINCQASQSISNLLAWYQQKPGQPPKLLIYRASTLESGVPSRFKGSGSGTEFTLTISDLECADAATYYCQCSYYGGSYIGAFGGGTEVVVK | 0.0443 | 0.000348 | binds | binds | – | 0.946 | – | – | – | – | –
6 | chimeric antibody clone 25-31 (rab600_25_31) (antibody, V domains shown) VH: QEQLKESGGGLVTPGTPLTLTCTASGFSLSSYDMSWVRQAPGKGLEWIGYIWSSGSAYYATWAEGRFTISKTSTTVGLKITSPTTEDTATYFCARRYVGSSYDTWGQGTLVTVSS VL: AVLTQTPSPVSAAVGGTVTISCQSSQSVSNNNYLSWYQQKPGQPPKLLIYAASYLASGVPPRFSGSGSGTQFTLTISGVQCDDAATYYCLGDYDNDIDHAFGGGTEVVVK | 0.0704 | 0.038 | binds | no binding | 4.13 | 3.15 | – | – | – | – | –
7 | chimeric antibody clone 24-62 (rab600_24_62) (antibody, V domains shown) VH: QSLEESGGDLVVPGTSLTLTCTASGFDLSSFYYMCWVRQAPGKGLEWIACIYAVSSGSTYYASWAKGRFTVSRTSSTTATLQMTSLTAADTATYFCARHQSYETYGYVGVVYATYFSLWGPGTLVTVSS VL: ALVMTQTPASVSAAVGGTVTINCQASEDIDSYLAWYQQKPGQPPKLLIYYASYLTSGVPSRFKGSGSGTEYTLTISGVQCDDAATYYCQSAFYSNNTETAFGGGTEVVVK | 0.137 | 0.0958 | binds | binds | – | – | – | – | – | – | –
8 | chimeric antibody clone 24-25 (rab600_24_25) (antibody, V domains shown) VH: QSLEESGGGLVKPEGSLTLTCAVSGFDLNSYYWICWARQAPGKGLEWIACIDGGSTGSAYYASWAKGRLSISKASSTTVTLQMTSLTAADTATYFCARVQSYVGYANYGYPNYFNLWGPGTLVTVSS VL: IEMTQTPSSVSAAVGGTVTINCQSSEDIDSYLAWYQQKPGQPPKLLIYHASYLTSGVPSRFSGSRSGTEFTLTISDLECDDAATYYCQSAYYSSSADNTFGGGTEVVVK | 0.21 | 0.189 | binds | binds | – | – | – | – | – | – | –
9 | humanized antibody h600_23_24_H (antibody, V domains shown) VH: EVQLVESGGGLVQPGGSLRLSCAASGFSLNSYGVNWVRQAPGKGLEWVGGINTGGSTYYANWAKGRFTISRDNSKNTLYLQMNSLRAEDTAVYYCARTSGNNVYNYFTLWGQGTLVTVSS VL: DIQMTQSPSSLSASVGDRVTITCQASQSIPSLLAWYQQKPGKAPKLLIYAPSTLASGVPSRFSGSGSGTDFTLTISSLQPEDFATYYCQSYYYGDNTYNNIFGGGTKVEIK | – | – | – | – | – | – | 0.091 | 0.142 | 1.99 | 1.5 | –
10 | humanized antibody clone 4 (taken as h600_23_4) (antibody, V domains shown) VH: EVQLVESGGGLVQPGGSLRLSCAASGIDLSSYTMGWVRQAPGKGLEWVGFISSSGHTYYANWAKGRFTISRDNSKNTLYLQMNSLRAEDTAVYYCAREGGYGGYDYTGIFNLWGQGTLVTVSS VL: DIQMTQSPSTLSASVGDRVTITCQATESISSWLAWYQQKPGKAPKLLIYGASTLESGVPSRFSGSGSGTEFTLTISSLQPDDFATYYCQQGYIYTNVDNTFGGGTKVEIK | – | – | – | – | – | – | 0.34 | 0.111 | 1.13 | – | 3.57
